Assays:
[1] = uninfected fish, 1 μg g-1
Protocol: The intraperitoneal (IP) route is chosen for an infection model as it is easy and quick to implement, turning this technique into one that is particularly indicated for use in different groups of experimentation animals. One hour after infection with E. coli ATCC 25922, different doses of IKB206 were administered to each of the groups. […] Furthermore, to determine the toxicity of IKB206 in adult fish, assays in which uninfected fish were inoculated with the highest amount of protein used in the efficacy assays (1 μg g-1) were performed.

[2] = system: Pseudomonas aeruginosa; test: Enzyme bactericidal activity assay on P. aeruginosa; assay type: cell-based
Protocol: (§1) Briefly, the different bacterial cultures were incubated in the specific media (Table 1) at 37° C. or 30° C., according to the strain, until reaching an A600 of 0.3. The cells were then deposited by centrifugation (4500×g, 10 min) and washed twice with the corresponding buffer, with the A600 being adjusted to ≈0.3. […] The control wells were treated with the same volume of buffer […]. The plates were incubated at 37° C. Samples were taken at different times, serial dilutions performed, and they were seeded in plates containing the specific medium to determine viable bacteria. The experiments were repeated at least 3 times. The bactericidal effect of IKB206 (and its variants) was quantified as the number of logs reduced in the presence of treatment, after a given incubation time (log10 (N0/Ni), where N0=number of CFU mL^−1 before treatment, and Ni=number of CFU mL^−1 after the corresponding incubation time in the presence of each treatment).

[3] = system: E. coli strain ATCC 25922; test: Stability studies by E. coli bactericidal activity assay; assay type: physicochemical, Escherichia coli; conditions: 29 days of storage; −80, −20, 4, 25° C.; glycerol 0 to 10%
Protocol: To that end, E. coli strain ATCC 25922 and 15 μg mL^−1 of IKB206 dissolved in different concentrations of glycerol (0, 0.2, 2, 5 and 10%) were used. The assays were carried out at different storage temperatures (−80° C., −20° C., 4° C., 25° C.) and storage times (1, 5, 7, 14, 21 and 29 days).

[4] = system: E. coli ATCC 25922; test: Efficacy assay using a sepsis model in zebrafish; assay type: in vivo; conditions: 72 hpi
Protocol: Once the minimum lethal dose is determined, the six-month old wild-type zebrafish (1.2 grams) were inoculated intraperitoneally (IP) with a total of 10 μl containing 5.5×10^7 CFU mL^−1 of the bacterium E. coli grown in LB medium. All the experiments were repeated at least three times.
To study the protection mediated by the chimera IKB206tags, groups of five (5) six-month old wild-type female zebrafish were infected intraperitoneally (IP) with a lethal dose of the bacterium E. coli (5.5×10^7 CFU). After 1 h, the animals were treated by administering 10 μl of IKB206tags subcutaneously with a dose of 1, 0.5, and 0.25 mg kg-1 of body weight. The fish included in the control group were treated with the buffer in which the protein is dissolved. The animals were observed several times a day and the number of deaths was recorded daily 72 hours post infection (hpi).

[5] = system: human HEK293 cells; test: Cytotoxicity assay by means of sulforhodamine B; assay type: cell-based; conditions: 50 to 400 μg mL^−1, 48 h
Protocol: A seeding test was performed with human HEK293 cells before performing the experiment. To that end, three different cell concentrations were seeded in a 96-well plate in 100 μl of DMEM medium+10% Fetal Bovine Serum (FBS). These cells were incubated at 37° C. and 5% CO2 for 72 h, monitoring growth. The initial cell concentration showing 80% confluence at 72 h was selected for the further assays, which in this case was 7000 cells/well. Twenty-four hours after seeding the cells, another 100 μl of medium with the concentrations of purified protein IKB206tags to be tested was added. In this case, 400 μg mL^−1, 200 μg mL^−1, 100 μg mL^−1, and 50 μg mL^−1. The assays were performed in quadruplicate. As controls, the cells were incubated only with culture media and with the buffer in which the protein is dissolved (vehicle control). Buffer volume added as a vehicle control was the same volume of the highest protein concentration. The plate was left to incubate for another 48 h. The results were obtained by means of fixing the cells by adding 50 μl of 50% cold trichloroacetic acid (TCA) per well and leaving the plate to incubate for 1 h at room temperature. After discarding the TCA, the plate was washed with distilled water and 40 μl of 0.4% sulforhodamine B (SRB) were added. […] The results were read in Cytation (Bioteck, USA) at an absorbance of 510 nm.

[6] = system: strains from S. xylosus, E. avium, E. faecium and E. faecalis; test: Enzyme bactericidal activity assay on strains of chicken microbiota; assay type: cell-based; conditions: 15 μg mL^−1
Protocol: (§2) Briefly, the different bacterial cultures were incubated in the specific media (Table 1) at 37° C. or 30° C., according to the strain, until reaching an A600 of 0.3. The cells were then deposited by centrifugation (4500×g, 10 min) and washed twice with the corresponding buffer, with the A600 being adjusted to ≈0.3. A volume of 160 μl of the bacterial suspension was transferred to sterile 96-well plates to which there were added 40 μl of the enzyme under study in a range of doses comprised between 1 and 60 μg mL^−1. The control wells were treated with the same volume of buffer […]. The plates were incubated at 37° C. Samples were taken at different times, serial dilutions performed, and they were seeded in plates containing the specific medium to determine viable bacteria. The experiments were repeated at least 3 times. The bactericidal effect of IKB206 (and its variants) was quantified as the number of logs reduced in the presence of treatment, after a given incubation time (log10 (N0/Ni), where N0=number of CFU mL^−1 before treatment, and Ni=number of CFU mL^−1 after the corresponding incubation time in the presence of each treatment).

[7] = system: E. coli ATCC 25922; test: MIC by microdilution in TP-Na 10 mM pH 6.15; assay type: cell-based, Escherichia coli
Protocol: The IKB206tags endolysin was purified from the Escherichia coli BL21 (DE3) strain, as previously described.
Checkerboard tests were assessed by the microdilution method, as previously described (Moody JA 1992, Moellering E G., Jr.1996). […] Each microtiter well contained 100 μl of a E. coli inoculum of 1×10^5 CFUs mL^−1, with or without the corresponding compounds, in a final volume of 200 μl of Sodium phosphate (TP-Na) buffer 10 mM pH 6.15 per well and the plates were incubated at 37° C. for 17 h.

[8] = system: Serratia marcescens; test: Enzyme bactericidal activity assay on S. marcescens; assay type: cell-based; conditions: incubation time of 120 min
Protocol: as §2

[9] = system: Citrobacter freundii; test: Enzyme bactericidal activity assay on C. freundii; assay type: cell-based; conditions: compared with E. coli or K. pneumoniae
Protocol: as §2

[10] = system: E. coli strain DSM 17076 with serotype O157: H7; test: Enzyme bactericidal activity assay on E. coli serotype O157:H7; assay type: cell-based, Escherichia coli; conditions: 15 μg mL^−1
Protocol: as §2

[11] = system: E. coli strain ATCC 25922; test: Enzyme bactericidal activity assay on E. coli ATCC 25922; assay type: cell-based, Escherichia coli
Protocol: as §2

[12] = system: Klebsiella pneumoniae; test: Enzyme bactericidal activity assay on K. pneumoniae; assay type: cell-based
Protocol: as §1

[13] = system: Acinetobacter baumannii; test: Enzyme bactericidal activity assay on A. baumannii; assay type: cell-based
Protocol: as §1

B1: IKB206: fusion of Enterobacter phage Arya putative endolysin (SEQ ID NO:1) and domain D8 of Bacillus amyloliquefaciens phage endolysin (SEQ ID NO:2), without tags (protein)
chain: MKTSPNGIAVTKYFESFEARAYPDPATGGKPYTIGFGTTVYPSGAPVRLGDVCTKEQAEKYLQNDLAKFEKIVSDAVRVPLNQGQFDALVSFTYNLGPANLRSSTLLKKLNAGDYAGAAKEFPRWNRANGKVMKGLTRRRAAEQCLFEGMGGASAIERGVAAANSGTPKNVSRGTSSTKTTPKYKVKNGDNLTKIAKKHNTTVATLLKLNPGIKDPNMIRVGQTLNVTGSGGKTHKVKSGDTLSKIAVDNKTTVSKLMNLNPEITNPNHIKVGQTIRLS
modifications: Chimeric endolysin (SEQ ID NO1 + SEQ ID NO2)
- toxicity in adult fish versus protein buffer [1]: no differences
- bactericidal activity ([2]; 15 μg mL^−1, 120 min): bactericidal activity
- killing of the cells present in the assay ([2]; 150 μg mL-1, 120 min): capable of killing all the cells present in the assay
- reductions in CFU/mL ([2]; 15 or 150 μg mL^−1): more than 4 logs
- stability (bactericidal activity after storage) [3]: still fully active
- survival (protection) ([4]; 1 μg g-1 (1 mg kg-1) subcutaneously 1 h after infection): 66.6%
- survival (protection) ([4]; 0.25 mg kg-1 subcutaneously 1 h after infection): 16.6%
- survival (protection) ([4]; 0.5 mg kg-1 subcutaneously 1 h after infection): 33.3%
- cytotoxicity versus control (culture media) [5]: not toxic
- bactericidal effect on chicken gut microbiota strains [6]: virtually no effect
- MIC [7]: 9.375 µg/mL
- bactericidal effect [8]: ~3 logarithms
- bactericidal activity [9]: significantly lower than that observed in E. coli or K. pneumoniae
- bactericidal activity on serotype O157:H7 [10]: excellent activity
- reduction in CFU mL^−1 ([11]; 5 μg mL^−1, 15 min of incubation): significantly reducing
- incubation time for killing the entire culture ([11]; 15 μg mL^−1): 30 min
- reduction of the number of CFU mL^−1 ([11]; 15 μg mL^−1, 5 minutes of incubation): significantly reducing
- bactericidal effect (log reduction) ([11]; 15 μg mL^−1, 15 minutes of incubation): more than 3 log
- reduction of the bacterial suspension ([11]; 15 μg mL^−1, 30 min of incubation): 5 log
- incubation time for killing the entire culture ([11]; 60 μg mL^−1): 15 min
- bactericidal activity ([12]; 15 μg mL^−1, 120 min): bactericidal activity
- killing of the cells present in the assay ([12]; 150 μg mL-1, 120 min): capable of killing all the cells present in the assay
- bactericidal activity (reduction) ([12]; under the tested conditions (15 or 150 μg mL^−1)): ≥ 4 logarithms
- bactericidal activity ([13]; 15 μg mL^−1, 120 min): bactericidal activity
- killing of the cells present in the assay ([13]; 150 μg mL-1, 120 min): capable of killing all the cells present in the assay
- reductions in CFU/mL ([13]; 15 or 150 μg mL^−1): more than 4 logs

— patent US12655409B2, “Recombinant lysin and its use in the treatment of Gram-negative bacterial infections” (TELUM THERAPEUTICS S.L., priority 2020, dated 2026)
